# Measurements: patent US20180086804A1 (COMMISSARIAT A L ENERGIE ATOMIQUE ET AUX ENERGIES …, published 2018)
# No end group written: not given here.
# B1: CCNB1 385-399 (peptide)
# peptide: H-KNVVMVNQGLTKHMT-NH2
# modifications: not fully specified
# B2: CCNB1 256-270 (peptide)
# peptide: SKYEEMYPPEIGDFA-NH2
# B3: CCNB1 77-91 (peptide)
# peptide: KKLPKPLEKVPMLVP-NH2
# B4: CCNB1 351-365 (peptide)
# peptide: LALKILDNGEWTPTL-NH2
# B5: CCNB1 338-352 (peptide)
# peptide: HFPPSQIAAGAFCLA-NH2
# B6: CCNB1 1-15 (peptide)
# peptide: MALRVTRNSKINAEN-NH2
# B7: CCNB1 17-31 (peptide)
# peptide: AKINMAGAKRVPTAP-NH2
# B8: CCNB1 315-329 (peptide)
# peptide: VDVEQHTLAKYLMEL-NH2
# B9: CCNB1 377-391 (peptide)
# peptide: LPVMQHLAKNVVMVN-NH2
# Molecular target: T1, HLA-DP401 (HLA-DPB1*04:01) (human, UniProt P20036 29-222)
# T1 construct: mature; purified from homozygous EBV-transformed lymphoblastoid cells with antibody B7/21
# Assay: competition ELISA vs biotin-Oxy 271-287
row,Binder,relative affinity
1,B1,116
2,B2,894
3,B3,212

# Molecular target: T2, HLA-DP402 (HLA-DPB1*04:02) (human, UniProt P20036 29-222)
# T2 construct: mature; purified from homozygous EBV-transformed lymphoblastoid cells with antibody B7/21
# Assay: competition ELISA vs biotin-Oxy 271-287
row,Binder,relative affinity
1,B1,2
2,B4,510
3,B5,188
4,B3,474

# Molecular target: T3, HLA-DR7 (HLA-DRB1*07:01) (human)
# T3 construct: mature; purified from homozygous EBV-transformed lymphoblastoid cells with antibody L243
# Assay: competition ELISA vs biotin-YKL
row,Binder,relative affinity
1,B6,2
2,B7,3
3,B8,6
4,B9,13

# Molecular target: T4, HLA-DR11 (HLA-DRB1*11:01) (human)
# T4 construct: mature; purified from homozygous EBV-transformed lymphoblastoid cells with antibody L243
# Assay: competition ELISA vs biotin-HA 306-318;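 further: HLA and competitor incubated 24 to 72 h, maximal signal taken from wells lacking competitor, background from wells lacking HLA molecule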
row,Binder,relative affinity
1,B1,766
2,B4,2330
3,B2,1370
4,B3,1630

# Molecular target: T5, HLA-DRB5 (HLA-DRB5*01:01) (human)
# T5 construct: mature; purified from homozygous EBV-transformed lymphoblastoid cells with antibody L243
# Assay: competition ELISA vs biotin-HA 306-318;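 further: HLA and competitor incubated 24 to 72 h, maximal signal taken from wells lacking competitor, background from wells lacking HLA molecule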
row,Binder,relative affinity
1,B1,52
2,B4,3060
3,B2,603

# Molecular target: T6, HLA-DR1 (HLA-DRB1*01:01) (human)
# T6 construct: mature; class II HLA molecule purified from homozygous EBV-transformed lymphoblastoid cells with antibody L243
# Assay: competition ELISA vs biotin-HA 306-318;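 further: HLA and competitor incubated 24 to 72 h, maximal signal taken from wells lacking competitor, background from wells lacking HLA molecule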
row,Binder,relative affinity
1,B1,4500
2,B4,648
3,B2,3
4,B5,598

# Molecular target: T7, HLA-DR4 (HLA-DRB1*04:01) (human)
# T7 construct: mature; purified from homozygous EBV-transformed lymphoblastoid cells with antibody L243
# Assay: competition ELISA vs biotin-HA 306-318;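 further: HLA and competitor incubated 24 to 72 h, maximal signal taken from wells lacking competitor, background from wells lacking HLA molecule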
row,Binder,relative affinity
1,B1,986
2,B4,1000
3,B2,456

# Molecular target: T8, HLA-DR13 (HLA-DRB1*13:01) (human)
# T8 construct: mature; purified from homozygous EBV-transformed lymphoblastoid cells with antibody L243
# Assay: competition ELISA vs biotin-B1 21-36
row,Binder,relative affinity
1,B1,37

# Molecular target: T4, HLA-DR11 (HLA-DRB1*11:01)
# Assay: competition ELISA vs biotin-HA 306-318
# Remark: another data set of the same source
row,Binder,relative affinity
1,B6,22
2,B7,2
3,B8,632
4,B9,3

# Molecular target: T5, HLA-DRB5 (HLA-DRB5*01:01)
# Assay: competition ELISA vs biotin-HA 306-318
# Remark: another data set of the same source
row,Binder,relative affinity
1,B6,374
2,B7,11
3,B8,224
4,B9,4080

# Molecular target: T6, HLA-DR1 (HLA-DRB1*01:01)
# Assay: competition ELISA vs biotin-HA 306-318
# Remark: another data set of the same source
row,Binder,relative affinity
1,B6,100
2,B7,5
3,B8,2450
4,B9,894

# Molecular target: T7, HLA-DR4 (HLA-DRB1*04:01)
# Assay: competition ELISA vs biotin-HA 306-318
# Remark: another data set of the same source
row,Binder,relative affinity
1,B6,46
2,B9,373

# Molecular target: T8, HLA-DR13 (HLA-DRB1*13:01)
# Assay: competition ELISA vs biotin-B1 21-36
# Remark: another data set of the same source
row,Binder,relative affinity
1,B6,58
2,B7,21
3,B8,211
4,B9,2

# Molecular target: T9, HLA-DR15 (HLA-DRB1*15:01) (human)
# T9 construct: mature; purified from homozygous EBV-transformed lymphoblastoid cells with antibody L243
# Assay: competition ELISA vs biotin-A3 152-166
row,Binder,relative affinity
1,B6,5
2,B7,120
3,B8,7

# Molecular target: T10, HLA-DR3 (HLA-DRB1*03:01) (human)
# T10 construct: mature; purified from homozygous EBV-transformed lymphoblastoid cells with antibody L243
# Assay: competition ELISA vs biotin-MT 2-16
row,Binder,relative affinity
1,B1,228

# Molecular target: T3, HLA-DR7 (HLA-DRB1*07:01)
# Assay: competition ELISA vs biotin-YKL
# Remark: another data set of the same source
row,Binder,relative affinity
1,B4,624
2,B2,61
3,B5,1400

# Molecular target: T10, HLA-DR3 (HLA-DRB1*03:01)
# Assay: competition ELISA vs biotin-MT 2-16
# Remark: another data set of the same source
row,Binder,relative affinity
1,B7,833

# Molecular target: T11, HLA-DRB4 (HLA-DRB4*01:01) (human)
# T11 construct: mature; purified from homozygous EBV-transformed lymphoblastoid cells with antibody L243
# Assay: competition ELISA vs biotin-E2/E168
row,Binder,relative affinity
1,B3,75

# Molecular target: T9, HLA-DR15 (HLA-DRB1*15:01)
# Assay: competition ELISA vs biotin-A3 152-166
# Remark: another data set of the same source
row,Binder,relative affinity
1,B1,0.02
2,B4,52
3,B2,153
4,B5,257
